Results taken from patent US20020081601A1, “Methods and compositions for diagnosis and treatment of cancer based on the transcription factor ets2” (MUSC Foundation For Research Development., priority 1998, published 2002).

System: DU145
Experiment: Soft agar growth assay (anchorage independent growth)
Assay type: cell-based, human
Conditions: DN-ETS2 transfectants vs DU145 parental; after three weeks
Experimental: Soft agar growth assays were performed in six-well plates (35-mm wells). Cells (20,000) were plated in 0.4% agar (Sigma) in RPMI 1640 supplemented with 10% FBS. An underlayer of 0.8% agar was used to prevent attachment of cells. Triplicate assays initiated with 20,000 cells were fed weekly by agar overlay and scored after 3 weeks. The soft agar assays were performed twice, independently.

B1: DN-ETS2: dominant negative ETS2 mutant: DNA binding domain (C-terminal amino acids 334-469) of human ETS2, expressed from pDN-ETS2 (protein, UniProt P15036 334-469, looked up, fragment)
chain: YIQERSDPVEQGKPVIPAAVLAGFTGSGPIQLWQFLLELLSDKSCQSFISWTGDGWEFKLADPDEVARRWGKRKNKPKMNYEKLSRGLRYYYDKNIIHKTSGKRYVYRFVCDLQNLLGFTPEELHAILGVQPDTED
  anchorage-independent growth in soft agar: do not grow well in soft agar
